Columns and labels:
[1] = biological target: Acetylated acetyl-CoA synthetase (Acs^Ac), Acs of S. enterica isolated from a cobB- strain (S. enterica) (UniProt Q8ZKF6); test: cell-based or functional assay
[2] = biological target: T1, Acetylated acetyl-CoA synthetase (Acs^Ac), Acs of S. enterica isolated from a cobB- strain
T1 chain: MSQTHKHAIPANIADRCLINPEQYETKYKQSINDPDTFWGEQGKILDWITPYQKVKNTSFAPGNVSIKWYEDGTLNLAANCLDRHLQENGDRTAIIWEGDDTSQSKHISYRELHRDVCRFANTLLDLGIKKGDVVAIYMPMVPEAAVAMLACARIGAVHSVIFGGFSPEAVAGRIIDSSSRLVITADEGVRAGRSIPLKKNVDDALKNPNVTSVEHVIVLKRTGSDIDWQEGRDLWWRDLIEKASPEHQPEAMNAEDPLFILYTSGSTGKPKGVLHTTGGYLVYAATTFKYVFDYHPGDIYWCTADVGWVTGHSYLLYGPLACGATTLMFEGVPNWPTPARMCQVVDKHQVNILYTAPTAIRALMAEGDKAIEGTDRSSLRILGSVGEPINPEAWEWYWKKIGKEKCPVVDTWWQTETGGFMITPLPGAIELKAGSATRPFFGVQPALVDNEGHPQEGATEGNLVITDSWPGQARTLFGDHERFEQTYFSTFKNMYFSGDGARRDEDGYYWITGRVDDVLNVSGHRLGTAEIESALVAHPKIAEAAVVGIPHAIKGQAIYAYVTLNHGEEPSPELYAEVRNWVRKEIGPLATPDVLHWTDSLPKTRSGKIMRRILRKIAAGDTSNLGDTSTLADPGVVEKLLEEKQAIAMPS

[3] = scale: pmoles of acetyl-CoA formed min^-1 mg of protein^-1

## CobB sirtuin of S. enterica (purified, homogeneous) (from UniProt P0A2F2 1-273) (enzyme)
[1]
  Acs Sp. Act. (purified Acs from CobB- host, plus BSA, CobB, NAD+) (nmoles of acetyl-CoA formed min^-1 mg^-1): 483
  Acs Sp. Act. (purified Acs from CobB- host, plus CobB, NAD+) (nmoles of acetyl-CoA formed min^-1 mg^-1): 480
[1]; [3]
  Acs Specific Activity (crude cell-free extract of Acs+ cobB- strain, plus 10 µg CobB + NAD+): 490
  Acs Specific Activity (crude cell-free extract of Acs+ cobB- strain, plus 10 µg CobB): 42

B1: CobB sirtuin of S. enterica (purified, homogeneous) (protein)
chain: MQSRRFHRLSRFRKNKRLLRERLRQRIFFRDRVVPEMMENPRVLVLTGAGISAESGIRTFRAADGLWEEHRVEDVATPEGFARNPGLVQTFYNARRQQLQQPEIQPNAAHLALAKLEEALGDRFLLVTQNIDNLHERAGNRNIIHMHGELLKVRCSQSGQILEWNGDVMPEDKCHCCQFPAPLRPHVVWFGEMPLGMDEIYMALSMADIFIAIGTSGHVYPAAGFVHEAKLHGAHTVELNLEPSQVGSEFEEKHYGPASQVVPEFVDKFLKGL
[2]
  reactivity of Acs with anti-acetyl-lysine antibody in a time-course immunoblot: The decreased reactivity of Acs with the antibody was dependent on the presence of NAD^+ and CobB in a time-course experiment
